This note sets out measurements from paper PMC2783309 (Experimental cell research, 2009).

This assay deals with Biotinylated Clostridium difficile toxin A (Clostridium difficile strain VPI 10463, UniProt P16154 1-2710). Description: pull-down.
Biotinylated Clostridium difficile toxin A, sequence (P16154 whole entry): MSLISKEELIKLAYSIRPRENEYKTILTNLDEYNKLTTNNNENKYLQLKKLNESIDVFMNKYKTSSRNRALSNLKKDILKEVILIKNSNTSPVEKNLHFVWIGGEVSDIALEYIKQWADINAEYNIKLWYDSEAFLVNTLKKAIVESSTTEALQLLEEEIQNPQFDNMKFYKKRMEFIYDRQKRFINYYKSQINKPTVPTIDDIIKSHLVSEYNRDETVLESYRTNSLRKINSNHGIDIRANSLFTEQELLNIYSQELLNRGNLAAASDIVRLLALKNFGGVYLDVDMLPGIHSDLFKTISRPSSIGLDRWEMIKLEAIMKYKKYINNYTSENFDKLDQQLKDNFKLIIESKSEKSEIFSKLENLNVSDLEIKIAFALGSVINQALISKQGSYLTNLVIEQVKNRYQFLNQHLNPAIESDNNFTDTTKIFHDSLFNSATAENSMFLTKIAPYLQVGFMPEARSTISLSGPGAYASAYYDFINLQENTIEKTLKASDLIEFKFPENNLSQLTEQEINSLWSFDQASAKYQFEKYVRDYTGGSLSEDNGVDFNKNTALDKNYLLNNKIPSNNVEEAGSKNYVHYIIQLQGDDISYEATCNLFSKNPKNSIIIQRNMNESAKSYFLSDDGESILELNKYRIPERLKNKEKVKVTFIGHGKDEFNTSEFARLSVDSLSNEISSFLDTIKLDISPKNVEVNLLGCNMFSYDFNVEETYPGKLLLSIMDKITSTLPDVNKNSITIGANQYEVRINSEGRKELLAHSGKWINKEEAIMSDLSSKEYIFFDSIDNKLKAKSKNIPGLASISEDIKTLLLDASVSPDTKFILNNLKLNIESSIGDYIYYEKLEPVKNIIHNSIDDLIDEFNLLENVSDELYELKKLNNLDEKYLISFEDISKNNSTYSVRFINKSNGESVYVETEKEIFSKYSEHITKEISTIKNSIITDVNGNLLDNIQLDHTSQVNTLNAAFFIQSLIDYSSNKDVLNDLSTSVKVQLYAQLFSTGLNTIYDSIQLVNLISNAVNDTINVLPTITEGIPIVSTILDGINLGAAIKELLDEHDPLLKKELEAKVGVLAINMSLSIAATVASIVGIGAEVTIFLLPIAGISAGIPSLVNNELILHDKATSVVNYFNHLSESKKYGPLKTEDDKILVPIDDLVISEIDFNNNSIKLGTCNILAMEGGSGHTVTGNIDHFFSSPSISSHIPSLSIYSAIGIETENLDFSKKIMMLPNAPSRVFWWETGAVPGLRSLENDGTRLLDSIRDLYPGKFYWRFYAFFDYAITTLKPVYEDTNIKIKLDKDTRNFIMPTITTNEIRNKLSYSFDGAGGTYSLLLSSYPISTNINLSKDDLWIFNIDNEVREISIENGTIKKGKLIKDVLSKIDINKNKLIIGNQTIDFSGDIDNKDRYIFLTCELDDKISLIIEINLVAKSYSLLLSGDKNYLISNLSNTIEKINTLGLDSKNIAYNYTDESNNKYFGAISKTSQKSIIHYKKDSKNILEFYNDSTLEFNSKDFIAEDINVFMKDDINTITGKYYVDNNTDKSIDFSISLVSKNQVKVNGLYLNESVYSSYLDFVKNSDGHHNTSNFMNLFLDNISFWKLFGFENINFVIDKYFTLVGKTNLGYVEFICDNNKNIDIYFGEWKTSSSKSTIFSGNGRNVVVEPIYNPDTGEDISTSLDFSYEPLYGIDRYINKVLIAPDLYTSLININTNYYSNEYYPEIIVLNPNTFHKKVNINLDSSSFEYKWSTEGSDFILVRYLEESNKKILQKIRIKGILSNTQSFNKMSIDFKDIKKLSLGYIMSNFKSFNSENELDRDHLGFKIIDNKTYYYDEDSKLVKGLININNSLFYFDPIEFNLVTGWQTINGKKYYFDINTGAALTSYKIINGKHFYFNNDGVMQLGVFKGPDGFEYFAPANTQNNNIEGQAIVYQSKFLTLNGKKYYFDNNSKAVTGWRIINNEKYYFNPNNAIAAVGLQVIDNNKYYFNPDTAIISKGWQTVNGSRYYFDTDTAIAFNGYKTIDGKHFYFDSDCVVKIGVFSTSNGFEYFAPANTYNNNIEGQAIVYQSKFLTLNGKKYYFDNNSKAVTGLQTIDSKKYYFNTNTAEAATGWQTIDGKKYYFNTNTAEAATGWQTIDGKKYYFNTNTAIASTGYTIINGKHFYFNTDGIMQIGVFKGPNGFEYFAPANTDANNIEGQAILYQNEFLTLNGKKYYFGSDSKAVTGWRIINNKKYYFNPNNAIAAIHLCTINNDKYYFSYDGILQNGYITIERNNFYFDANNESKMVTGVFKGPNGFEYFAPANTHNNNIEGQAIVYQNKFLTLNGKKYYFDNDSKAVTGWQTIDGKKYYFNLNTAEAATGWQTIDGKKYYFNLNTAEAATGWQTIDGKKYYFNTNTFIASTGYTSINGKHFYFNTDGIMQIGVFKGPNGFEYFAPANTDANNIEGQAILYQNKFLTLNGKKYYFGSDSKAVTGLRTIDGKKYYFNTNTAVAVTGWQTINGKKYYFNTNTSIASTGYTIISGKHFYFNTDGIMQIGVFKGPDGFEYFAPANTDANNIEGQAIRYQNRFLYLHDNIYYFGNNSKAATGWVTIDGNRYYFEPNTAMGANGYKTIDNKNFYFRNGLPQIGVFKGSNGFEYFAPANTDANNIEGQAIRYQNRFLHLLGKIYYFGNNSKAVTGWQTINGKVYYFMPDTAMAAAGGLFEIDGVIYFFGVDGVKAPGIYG

B1: GST-Src catalytic domain (domain or fragment, UniProt P12931-1 226-536, looked up)
chain: LQQLVAYYSKHADGLCHRLTTVCPTSKPQTQGLAKDAWEIPRESLRLEVKLGQGCFGEVWMGTWNGTTRVAIKTLKPGTMSPEAFLQEAQVMKKLRHEKLVQLYAVVSEEPIYIVTEYMSKGSLLDFLKGETGKYLRLPQLVDMAAQIASGMAYVERMNYVHRDLRAANILVGENLVCKVADFGLARLIEDNEYTARQGAKFPIKWTAPEAALYGRFTIKSDVWSFGILLTELTTKGRVPYPGMVNREVLDQVERGYRMPCPPECPESLHDLMCQCWRKEPEERPTFEYLQAFLEDYFTSTEPQYQPGENL
Take B1: the binding result is “binds”.
